# Reference: the RNAGym collection of RNA variant scans (doi:10.1073/pnas.2313332121)
# B1: TPR t1 (parent)
# chain: GACCAAUCUGCCCUCAGAGCUCGAGAACAUCUUCGGAUGCAGAGGAGGCAGGCUUCGGUGGCGCGAUAGCGCCAACGUCCUCAACCUCCAAUGCAUCCCACCACAUGAUGAUGCCUGAAGAGCCUUGGUUUUUUG
# Variants of: B1
# Test: polymerase ribozyme fitness, log enrichment relative to wild type (log ratio); higher = more active; in vitro selection for triplet polymerase activity
# Method in brief: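 Frozen incubation at −7 °C formed the core of a single, triplicate in vitro selection round applied to PCR-built, transcribed mutant libraries of each subunit of a heterodimeric triplet polymerase ribozyme. Extended constructs were gel-excised, captured with streptavidin beads and amplified by RT-PCR, and input and output libraries were Illumina-sequenced with a filter of ≥10 input reads and ≥1 read per output. Fitness is the logarithm of genotype enrichment relative to wild-type enrichment, with inverse-variance-weighted replicate averaging, and the logarithm is base 2.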
row,Variant,polymerase ribozyme fitness (log ratio)
1,G61C G71A,-4.05
2,G61C G77U,-1.86
3,G61C G77A,-4.61
4,G61A A83G,-1.47
5,G61A A83C,-0.418
6,G61A G127U U134C,-0.718
7,G61C G69U,-1.37
8,G60U C102U A108G,-3.29
9,G61U G113A C115U,-3.08
10,G61A U87A,0.597
11,G61U C79U,0.149
12,G61C U81A,-3.2
13,G61C C94U U112A,-1.52
14,G60U G77A U131A,-0.885
15,G61U C123G,1.2
16,G61U C123A,0.578
17,G61C A105U,-3.67
18,G61C A105C,-4.76
19,G61A G71U A95U U106G G120U,-5.9
20,G61U C82G A100C G113U,-5.11
21,G60U G71C,-3.38
22,G60U G71U,-1.98
23,G61C U131A,-2.31
24,G60U C79A,-0.593

row,Variant,polymerase ribozyme fitness (log ratio)
1,G61C C94U C115U A121G,-4.32
2,G60U C62U G117U,-5.73
3,G60U A121C,1.48
4,G60U A90C,-1.12
5,G61A A66C U78C C88G,-2.23
6,G61A U81A C82A C98U,-1.55
7,G61U A111U,-1.75
8,G61C C80A C101A G110A U112G C115U,-8.21
9,G61U A121G,2.12
10,G61U A121C,1.94
11,G60U U81A,-0.347
12,G61C G117U,-4.38
13,G61C G117C,-3.51
14,G61C C80A U109G,-6.27
15,G60U C70U C94U,-2.63
16,G61A U116G G128U,-3.71
17,G61U C98U U129C,-0.95
18,G61A A84C C88G,0.0148
19,G61A C79G,-0.521
20,G61A C79U,-0.164
21,G61C A75U A84C A95C,-1.21
22,G61U G93U,-0.532
23,G61A G77A,-1.19
24,G61U G107C,-4.98

row,Variant,polymerase ribozyme fitness (log ratio)
1,G60U C89A A111C C114A,-4.37
2,G61C C72U,0.273
3,G61A C80U A105U,-3.51
4,G61A A84U G93C G128A,-3.36
5,G61U C62U,-3.5
6,G61C C82U G117A,-2.78
7,G60U G120A U126A,-0.262
8,G61A A91C A95U G110U C115A U125C U130C,-3.6
9,G61A U81G A84G A91G A111G,-4.48
10,G60U G61A,-0.341
11,G60U G61U,-1.93
12,G61A C97G,-3.34
13,G61C A100U,-2.98
14,G61U C86U,-0.781
15,G61A G93C A95C,-1.24
16,G61A C76U C97U,-4.24
17,G61A G93A C104U,0.015
18,G61U C72A,0.45
19,G61U C72G,-0.168
20,G61C C104U,-1.51
21,G60U G63U C99U C101G C115G G122U C124G,-6.39
22,G61A A118C G120C U126G,-4.35
23,G60U C62U U78G C80A U112C,-1.42
24,G60U C114U C123U,-3.67

row,Variant,polymerase ribozyme fitness (log ratio)
1,G61A U125G,-0.638
2,G61A C98U C114A,-2.26
3,G61A G120A,0.833
4,G60U C123G C124U,2.24
5,G61A C70A,-3.99
6,G61A C70U,-0.854
7,G60U U112G A121G U133A U134A,1.66
8,G61U C64U,-3.25
9,G61C U125A,-1.89
10,G61C G93C,-3.2
11,G61C A84G U109G,-6.69
12,G61A G117A,-0.803
13,G61A G117C,-2.99
14,G61A A83C G110U G117U,-5.13
15,G61C A91U,-4.64
16,G61U C82G C85U A119U,-0.891
17,G60U A84G G128A,-1.56
18,G60U U112C,1
19,G60U G71A U92G C123A,-6.18
20,G61A C88G G110A,-1.26
21,G61A C123A,0.936
22,G61A C123U,1.29
23,G61C G127A U129A,-2.95
24,G61A U131G,-0.0143

row,Variant,polymerase ribozyme fitness (log ratio)
1,G61A U131C,-0.691
2,G60U C70A,-3.78
3,G60U G120C,1.43
4,G61A G128A,-1.69
5,G61C C88A G117U,-5.25
6,G61A G93C C97A C104A,-6.04
7,G61C U132A,-1.81
8,G61A C85U G117A U129C,-2.75
9,G60U G128A,-1.69
10,G60U G128U,-2.12
11,G61A A74C G128C,-5.31
12,G61U C114U,-0.943
13,G61C G127A,-2.71
14,G61A A90G,-0.68
15,G61C G135U,-2.53
16,G61U G117C U131C,-3.82
17,G61A G110A C114G,-6.32
18,G61A A74U C101G G120C,-2.7
19,G61U C88G,-1.3
20,G61U C88A,-1.18
21,G60U U109G U125G U130G,-5.39
22,G61U C89U U92G,-3
23,G61A A103U G113C,-6.41
24,G61C C114U G127U,-5.3

row,Variant,polymerase ribozyme fitness (log ratio)
1,G61U A83C C104A C115U,-4.01
2,G61A C99U,-2.85
3,G61C U112C,0.0988
4,G61C U112G,-2.38
5,G61U A84G G93U G120U,-0.773
6,G61C U78A U106A G120A,0.446
7,G61U C79A G110U,-3.28
8,G60U A95G C115G,-2.25
9,G60U C101U G120A,0.583
10,G61U G110U A111U,-4.03
11,G60C U133A,-0.621
12,G60U A108C C124A,-5.47
13,G61U G120C U125A,0.559
14,G61A A66U U78C A118G,-1.83
15,G60U C115A,0.226
16,G60U G61A A91U,-2.61
17,G61U A74G G93U G117U,-5.63
18,G61A C88G G120A A121C,-1.75
19,G61C C94A U131G,-2.91
20,G61A U96G U130C,-0.371
21,G61U C97G G122U,-3.87
22,G61C A121C,-0.241
23,G61A C94A,-0.27
24,G61A C94U,-0.0774

row,Variant,polymerase ribozyme fitness (log ratio)
1,G61A U87A C124A,1.93
2,G61C C73U,-2.31
3,G61C C80A G107U C114U G127C,-5.81
4,G61U C62A U112A G128A U133A,-5.42
5,G61U C101U A119G C124G,1.72
6,G61C A119U,-1.89
7,G61C A119G,-0.986
8,G61A U81G U116G C124A,-2.39
9,G61C A75U C97U,-0.192
10,G61C C82A G110A G127A,-3.64
11,G61A C80U,-1.03
12,G60U G61A U78G A84U C86A,-3.37
13,G61U G77A,-0.736
14,G61A C86A,-0.514
15,G61U C86U G135U,-1.31
16,G61A A74U G113U,-4.56
17,G61A U78C C104A,-1.61
18,G61A U92C C114A,-2.51
19,G61C C73G U134G G135C,-1.75
20,G61A C89U,-0.458
21,G61U G120C,1.18
22,G61U G120U,1.51
23,G61A C97G G110A,-5.81
